Article PMC6695192

Legend:
[1] = target: GOLD-3A fusion protein LVVY mutant N-terminally fused to mAmetrine or mPlum (UniProt Q9H3P7); assay: FRET by flow cytometry in HeLa cells (self-association of mAmetrine- and mPlum-fused GOLD-3A); conditions: mean FRET signal at a fixed acceptor signal (dashed line in f, acceptor fluorescence 100 a.u.); three independent experiments; p-value = 0.004; parent: est. …; read off a plot
[2] = target: EGFP-fused ACBD3 GOLD domain (human) (UniProt Q9H3P7); assay: MST; EGFP-fused GOLD domain at a constant 150 nM, GB1-fused 3A cytoplasmic domain in a series of concentrations; 30 mM Tris pH 7.4, 150 mM NaCl, 3 mM β-mercaptoethanol; Monolith NT.115
[3] = target: GOLD-EVD68 3A fusion protein, wild type (human | enterovirus D68) (UniProt Q9H3P7); assay: SEC
[4] = target: GOLD-EVD68 3A fusion protein, wild type (human | enterovirus D68) (UniProt Q9H3P7); assay: […]; 30 mM Tris pH 7.4, 150 mM NaCl, 1 mM TCEP; […]
[5] = target: GB1-fused cytoplasmic domain of the enterovirus D68 3A protein, wild type (enterovirus D68); assay: SEC

For “wild-type GOLD-3A fusion protein N-terminally fused to mAmetrine or mPlum (from UniProt Q9H3P7) L25A; V29A; V34A; Y37A”, the response [1] was 3.9 a.u.
With “GB1-fused cytoplasmic domain of the enterovirus A71 3A protein (domain or fragment)” the Kd [2] was 15 µM.
“GB1-fused cytoplasmic domain of the rhinovirus B14 3A protein (domain or fragment)” gave a Kd [2] of 1 µM.
Substance “GOLD-EVD68 3A fusion protein, wild type (from UniProt Q9H3P7)” has a stoichiometry N [3] of 2 and a stoichiometry N [4] of 2.
In the case of “GB1-fused cytoplasmic domain of the enterovirus D68 3A protein, wild type (domain or fragment)”, the stoichiometry N [5] is reported as 2 and the Kd [2] is reported as 1 µM.
